In the NTF2 design screens of Basanta et al. (2020):

Assay: protease stability score; higher = more stable; yeast display proteolysis, trypsin and chymotrypsin;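 note: relative to predicted unfolded state with 0 unfolded-like and 1 meaning tenfold more protease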

Sequence | protease stability score
DEDHESWERAYNIYLHALRTGDEERNHELADPRVLTHIDGVELHGREMMTRVMTELRIHEHRIHRVHIIGEKIDIDIEVRFRWNGKLVDTRTHEHRLKVDGKWLLTRFEVR | 0.76
DEDHEVFKRINDLFHESLETGDERVLERLMDPNTRIEYGDKRVHGREELLRHMREMGIDHFNVEDTTVINGVAMLDVSIVVNGKVFKLEFYVNKVNGQWHLEHVEIREI | 0.661
DEDHHEAEEWADLITHFLKTGDEKFLRDLADPNTRFKYGDFHIHGREQLTNFLRHYVERVKGIRSELKDKHVDVQGEKVRVELDLVLRIGDKTIHITIIIINLKVDGKWYVHTLVVEHR | 1.18
DEDHHESHRALTELFKDLLTGDWKSSKELADPHARVDINGKEYHGREEMERFFKELWERLGIDHIDVKHIEIQGNKVISHLEIHVNGRTFNLIIIIDKVNGRWIIHSMKMDTE | 0.968
DEDHHLVQLASEIVSKLIHTGDEEMIYHLADPHTRNDVNGKVFHGRDEMLKYLHDRWRHFGVERINHIVHHIRVVDGRADIDGRLHVGDKDFTVHIHMEKVNGRWVIKEIRIK | 0.68
DEDHKEVKHILRMWMENLYTGDEELNNRLLDPNARWEVNGRDIHGRELILKVLSNEYTEWRMKHIKIDHVENVNGQVHVDITIKYDINGQEINLRTHIRIYIINGKIHEIHISIH | 0.576
DEDHKFAVEILRRLMEIWFTGNEEELKHLADPDYRLRVRINGKEITRHGMEQSREQIKRWIDRIDHYEIRIRHLEWQGDKSHSHTELHMRFDGVIKKFETRIIVIVIDGKVSEIIIEIN | 1.61
DEDHKHAERFVEEFITLILTGNEELLKRLADPNVKIDFDGVEIIGREILNSHTKKQINRIDHIRIHIRHIHVQGDKAIIDLEVRIIVDGKEDRNETHLFLTKVNGRWILTSWKVG | 1.6
DEDHKHSEEAIKRWIDTMVTGDERLFNHLADPHTKIEFNGVDNHGMEEAVRVMIFIFRLLGVDHIRIEFRERHVFNGKVVWHFHLERRIGDKTEHINTHILMEKVDGRWLIQSERYE | 1.56
DEDHKHWKKLTEILFHVFRTGDWHLLEKLADPNVRTVVNGVEIHGREHLADIMWLHKETLGIDHMELRSIEYQGEKFIIHAEIDVNGRKVDVHIRSVIIDGRMHSISIEVHHH | 1.99
DEDHKIIEKLFRHWLELLLTGDEEEIEKQMDPHARIIINGRHTHGRDDIRRLLEEIRIRHLDIERLEIRIYGNKAVALSETRVEVRIGDKEFHVDYRIILIIEKVDGRWVKRSLELIVV | 1.71
DEDHKIVEHMVKLIIDSMHTGDEHSIRELFDPNTRMDVNGVDFHGWEHYHKRIEDLRKRADHVTIYIRDMKVINGQAHIHTEMRIDIGDKHLRHRVIIIVLKVDGRWVIEQVIFL | 2.29
DEDHKLAEHFIRLLSEKIETGDEDSYKEMVDPNVRIEIGDKEYHGRDEATRVMKEIRERVKNMRIEIHEIHIQGDKVHVRRIDKVGDKEIEKHLIVLKFDGRWVIERERVH | 1.19
DEDHKLLEKFYRIWVEMFKTGDEERWKHLADPDARSDINGVDFIGRDTVSKIMESFLRKMGFDHMEIRRFDFQGEKIKSDVVLDFNGRDVRTEIHIIVVDGRIKEERFRVT | 0.192
DEDHKQSKHAFELFMHLLRTGDEEVLRRMADPNARIVVNGKDDIGREVFLRVLLEFGVDHMQIRDWELDENHIILVSELRIGEKTHTLDVHFKKINGRWIVEVNNLE | 1.25
DEDHKRVREMTDILIELLVTGNEDLLLKLMDPHARERIGDWHSHGRESFVKLLQDLLERIKNVRIEIKDMRIRIYNGVAHSHIDGNNIYNGREIKALWILIIEKINGRWIVHSIELETE | 1.45
DEDHKSAEDMLRLLLETVITGDETLLEKLADPHVRLRVGDKKFIGMEELLRLLDEEKKRLGYTRVDLVLHHREVQGDKLHLETELRVNGRTYQTHWIALKINGRWIIHEVSIR | 2.25
DEDHKWAKFMFEVFKKVVETGDEEVFKHLADPNVRMEVGDKEFIGREEFRRFLNELRIHHQRDTHIEIRSVGDKIEVLIDGETTIEVGDKTRDHRMRVILFTMKVDGRWLIRSIRFEIH | 1.56
DEDHQASRLVFELLDRAWKTGDEQILNEMMDPHVKVVFNGVELHGRSALERLMKELRIDTLHLDHTEIYDGRMETEGKVDGEYNGRTLHHITKIRFEKIDGRWVEREVVIK | 0.815
DEDHQMATIAFHLLIESLLTGDEHTIQEMFDPRVKVNINGVELIGWEALVEHLRRIDHHSIHQWTFRDVRFYDGVLNVLGEVDFEVVFDGRRVSHRVRFHLIIFKIDGKWMTRTVEVK | 2.23
DEDHRDAIFILRLFLHATETGDEDSLETLMDPHVKLEINGVRIHGRETTYILMRHWRFRIEHLEIRNFDVFNGRLELIGHRHTTINIDGREERHTVRLEVHIWKINGQWLVQHIHIH | 2.91
DEDHRDAQRLVEHWINVFETGDEEQIEKLLDPNARVIVDGRHVHGRSSVLKFIVDLVREMRVELRLKDLSVVDGRVHVKMEMRIEINGRREETEVDINAEKVDGVWRFKEMFVI | 2.47
DEDHRDMEEFMRIFIDSLKTGDEESLARMLDPNARTKVNGVDFHGRESALEVLRRLWEEFGVDHMELKSREVEVQGNKVHIHLVVTLIQGDKHIHVRYHINTIKVDGRWLLHEINVEIR | 1.36
DEDHRDVERLFQFVEELLHTGDERVNEELADPNVRIDVNGVERHGREDMVTWLRTIEERYKNATFHTHHIRIQGNKLKVNGRIRQGDWSSDVDILYVKINGRWFIRELKVK | 1.49
DEDHRHARNIFQKWTHDLATGNFHSLNTLFDPHARFEVGDKDIIGRHEWQEHLRHLRLHEVKFTWRRFRIFDGRVEMRGDLRVDGTIDGQHDDETIHTHMIILKVNGRWHIDSMHVH | 1.08

Sequence | protease stability score
DEDHRIAHEIFRLLFHLLSTGDEDIFNQMADPHVQSIVGDKEFHGREQLRKAWHEIRVHRSDIHSVEIRVINGRVRNDMRIRYDGEINGKKIDTDIHMEVVIDKYNGRWIIRSVSIEII | 2.16
DEDHRLAVHISKMFEHAESTGDFEISERMADPHTKIDIGDKHYHGMEEWVRFLRELRLSTDHIEIKDSKRYNGRLIIHSRTRITLNVNGKTIDFEIDVTFIFEKVNGRWKLHMYRFD | 0.944
DEDHRLWEEMIRILHDALRTGDEDMLEHLMDPDTRLHVGDKNVHGRRDMKYFWEILGVDRVELVIRSFRLIDGKAEIDGESRFNGVTRRVRLIHNKINGRWLTESIHIH | 0.745
DEDHRWLKELMELFSRALSTGNEKELTELMDPNTRIEVDGVDLIGREDWRHFLERVDHLEAKRVEIKRVKVYDGKIEMDTTEDGVIEINGQNVRTIVHSQVFVLKVDGRWIFRKMSRR | 1.42
DEDKDKVRRWAEDFIRDLTTGDFDSLRREADPNYRIEVNGQDHHGMEFHLWVLDHLGLDNIHTELRDSEVQGDKAHNDIRITYNGKEMTVILIVDKVNGKWFVRKIRIE | 1.72
DEDKDLIDLHFEIYQQVVLTGDFRKFRRLFDPNTRWEIGDKEFHGREHLSKLHKDLLEHLGVRVREVELHNFHIQGDKIHLDTRIHVHAENHHMIHITEIISTKIDGRWIITELRLR | 0.826
DEDKDLMHEVTRLLHRNLNTGDEHSLERLFDPHYRYHQGEFHSVGREEWYEWLRRYGVDHVHVNLTESISVGDKMKLEGKLELRYDGRRFEHDLHLIALKIDGRWIFTSSHVR | 0.221
DEDKDMKDTMLKDLLHTLETGDEDIWAKLIDPNTQVDIGDKRIHGREKIVEHFRRADVLTIHHVRLRQFHHFDGRAHMNVQFDGTVQINGVEVRFDVTVKLVFLKVNGRWFLHSEERE | 1.15
DEDKDVTKRLFELLRQADETGDEHTMTRLLDPHAQLVVNGRRVHGMEFVWELLLRLRHRYDHSHWRLHDARTQGEYMHLDVRLHLNIDGKRVNIEMHLIILKIDGVWFVHSVEIH | 0.45
DEDKEAARHFSKILIHLMLTGDEEMIERLLDPDVKVHLVINGVHIERHGREEMIKMHRELLEQIRWKDFILRDIKVVNGVAHVDGELRREQGDKHETVRVRIDIVVINGRIRQVHIEFR | 0.404
DEDKEAKEESWRIYLHSLLTGDEKEIERLVDPNARLDINGQEHHGRHMVLTHVLRLMVRADHLDDIEIHHMEVIDGQLHSDVILKITINGRDVHIREHYLLRKVNGRWYFKSIEVR | 1.7
DEDKEALHEILRLIAEAWNTGDEHTLRRLFDPDVRVEVGDKEFHGREEVDRWFRHLRIEHVETRLHDTRSQGDKLLSDTRLHFVGEVNGVHFNRSTETDLFVHKVDGRWRIESIRVR | 1.03
DEDKEDLDDWFKRWEEALRTGDEKTLLRLMDPDTRLIFENHERHGMEEIFDMLHKHLNRVDHIHDFILRRDDSQGDKVRYDGQEDGIVDGVRDILKVIIYMIKIDGRWLMEELEFH | 1.26
DEDKEDTDKMIEILIRVARTGDEDSLLHMLDPNVRIVVNGREEHGRDVAHRFLKEIRIHDMEVKRVEIIGNKVKIDGRVDGDFNGVRHKTETEIITEKINGKWVIRSIIFR | 2.1
DEDKEEAMKFLRLWFHSVLTGDEDELTRLLDPNTRIVIDGRTFVGREEMVFVMREMRVHHFHIKDVHLVNGVAHIDTHSDIEFNGRRYRTDTEISVLKVDGKWILKSVKIR | 2.42
DEDKEEAVRIIHEWSHAVFTGDFERELRLADPNVRLIINGRDFHGWHSLRELLNHMRLKTHHTDVKRSRSQGDFVEIDGLFNFTIHFNGRDLNVITDVKVVINKIDGRWKIESVHYE | 1.18
DEDKEEIMEAIKEFLTNLQTGDEERLFELFDPHVRLKVNGQLYHGREDLVRHLSELGVKHWRLRSVEIQGEKAIMHGLVNVDGRSVRMIIEAEKVNGRWRMRHFESH | 1.84
DEDKEESEKFFRDMHRAAETGDWREHLRLMDPHVRLVVGEYQHHGRETFEEILTEWFERVDHQELVIRHVRVYDGVADLDGEIIYHYGDKIIFVRYTIHVRKVDGRWRIKHIRIE | 0.476
DEDKEFMERLARMFWHSILTGDEHRISNLADPNMKLEVDGQRFHGREEMERASKERWERLGVDHIHIEDLRVVGDKVTIHTHVDINGKEWRVDIEVKIINGKIKEIRIERHEL | 1.09
DEDKEHIDRSLEELRRSWKTGNEEDVLRLADPHVKMIYNGRHHIGRENFEEALKILLERVDHWEDFRITDRHRQGDKVELDVESEGLVNGVTKRTEMIFIILKIDGRWLLHSLEIR | 0.724
DEDKEIADNFLKQLLRDIQTGDEDSFIERLDPNARLQVGDKHVHGMDEVLRTRREWVKLMGADHIHHVEVNHVHIQGDKVHMDVEVDVEFNGKRRRLKSHLILTKVDGQWIITMEIIK | 1.08
DEDKEIAEHNLRLLSHSRLTGDEESMHKLMDPNAKIDFNGREIHGMEWIEWLKNQLRLKHVHTEFKDSRIINGRMEVDVNLRLHLSINGKEVDFIIDVELISQKVDGRWIVRSEIYR | 0.375
DEDKEIAEKVAREVFHNFMTGDEDRHLELADPHTRLRVGEWENHGRDQVKRMFERQRRRFDHLERIEIKDVRIYDGVVHLHVEVHGVINGVSTTLEMRVYFVVVNGQLKRSSIHIH | 0.373
DEDKEIAKKAIEDLLRAWYTGDEEFLKNLVDPNVRSNFDGVDYHGRDEVEKFWHDHLRDLGADHVEFSLHELRIYGDKIILHTKIKFNVNGREIRRETEVISRKIDGRWLIKEIHFR | 1.42
DEDKEILHKMVEILRHALQTGDEDRLSEMFDPNVRLEINGREEWGREIFRDKHRQLGVDHLHIIIRRVHIQGEYAHIDTEYRIHVNGKTLETRVEVIALKIDGKWLIRQVIFT | 1.14
